Experimental data reported in the nanobody polyreactivity screen of Harvey et al. (2022).

Assay: yeast display, Sf9 membrane polyspecificity reagent, FACS + sequencing; frameworks hold sequencing errors
Summary of the method: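 After 36–48 hours of galactose induction, yeast (Saccharomyces cerevisiae BJ5465) displaying a synthetic nanobody library were stained at 4 °C for 1 hour with 10% biotinylated, detergent-solubilized Sf9 membrane reagent. Streptavidin microbeads enriched the stained cells before FACS sorting into low and high (top ~1%) gates on anti-HA and streptavidin fluorescence. Each clone's polyreactivity label reflects its gate of origin.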

QVQLVESGGGLVQAGGSLRLSCAASGSTFQSYTMGWYRQAPGKERELVATITSTSSTSYADSVKGRFTISRDNAKNTVYLQMNSLKPEDTAVYYCNAEGLHWGQGTQVTVSS
polyreactivity (PSR sort gate): low polyreactivity

QVQLVESGGGLVQAGGSLRLSCAASGSTFQTYAMGSYRPAPGKERELVAAISKTGASTYYADSVKGRFTISRDNAKNTVNLQMNSLKPEDTAVYYCAAGRYTSYYPRYYYWGQGTQVTVSS
polyreactivity (PSR sort gate): high polyreactivity

QVQLVESGGGLVQAGGSLRLSCAASGSTFQTYARGWYRQAPGKERELVASIDYSGGSTYYADSVKGRFTISRDNAKNTVYLQMNSLKPEDTAVYYCAKALSQTWYDGQYGYWGQGTQVTVSS
polyreactivity (PSR sort gate): low polyreactivity

QVQLVESGGGLVQAGGSLRLSCAASGSTFQVYAMGWYRQAPGKERELVAAISNGGRTNYADSVKGRFTISRDNAKNTVYLQMNSLKPEDTAVYYCNADQVWWSFDRVLVGYEYWGQGTQVTVSS
polyreactivity (PSR sort gate): low polyreactivity

QVQLVESGGGLVQAGGSLRLSCAASGSTFQVYAMGWYRQAPGKERELVASITSGGSTYADSVKGRFTISRDNAKNTVYLQINSLKPEDTAVYYCAAGGYFYPYTYDYWGQGTQVTVSS
polyreactivity (PSR sort gate): low polyreactivity

QVQLVESGGGLVQAGGSLRLSCAASGSTFQWYAMGWYRQAPGKERELVAGITRTGSTYYADSVKGRFTISRDNAKNTVYLQMNSLKPEDTAVYYCAAKWHTASGKYYYWGQGTQVTVSS
polyreactivity (PSR sort gate): high polyreactivity

QVQLVESGGGLVQAGGSLRLSCAASGSTFQWYTMGWYRQAPGKERELVAAISRSGGRTYYADSVKGRFTISRDNAKNTVYLQMNSLKPEDTAVYYCAARWGRLPEQYRYDYWGQGTQVTVSS
polyreactivity (PSR sort gate): high polyreactivity

QVQLVESGGGLVQAGGSLRLSCAASGSTFQYKAMGWYRQAPGKERELVAAISRRGGSTYYADSVKRRFTISRDNAKNTVYFQMNSLKPADTAVYYCAKEKGYWSGYDYWGQGTQVTVSS
polyreactivity (PSR sort gate): high polyreactivity

QVQLVESGGGLVQAGGSLRLSCAASGSTFQYNAMGWYRQAPGKERELVARISSSGGRTYYADSVKGRFTISRDNAKNTVYLQMNSLKPEDTAVYYCNKGYPYVAYDYWGQGTQVTVSS
polyreactivity (PSR sort gate): high polyreactivity

QVQLVESGGGLVQAGGSLRLSCAASGSTFQYYAMGWYRQAPGKERELVAAISDGTNTNYADSVKGRFTISRDNAKNTVYLQMNSLKPEDTAVYYCAARFYSIVKYVGIGTDEYDYWGQGTQVTVSS
polyreactivity (PSR sort gate): low polyreactivity

QVQLVESGGGLVQAGGSLRLSCAASGSTFQYYAMGWYRQAPGKERELVAAISYGGSRTYYADSVKGRFTISRDNAKNNVYLQMNSLKPEDTAVYYCAKVKYRALAPYYYWGQGTQVTVSS
polyreactivity (PSR sort gate): high polyreactivity

QVQLVESGGGLVQAGGSLRLSCAASGSTFQYYAMGWYRQAPGKEREMVAAISASVDTTFYADSVKGRFTISRDNAKNTVYLQMNSLKPEDTAVYYCATDWPHWRKVYWFDYWGQGTQVTVSS
polyreactivity (PSR sort gate): low polyreactivity

QVQLVESGGGLVQAGGSLRLSCAASGSTFRANAMGWYRQAPGKERELVAAISQSGGITYYADSVKGRFTISRDNAKNTVYLQMNSLKPEDTAVYYCAALGYRIKRGRFYYWGQGTQVTVSS
polyreactivity (PSR sort gate): high polyreactivity

QVQLVESGGGLVQAGGSLRLSCAASGSTFRANAMGWYRQAPGKERELVAAISSGDSTNYADSVKGRFTISRDNAKKSVYLQMNSLKPEDTAVYYCAAVYTYYWWGSYGYWGQGTQVTVSS
polyreactivity (PSR sort gate): low polyreactivity

QVQLVESGGGLVQAGGSLRLSCAASGSTFREYAMGWSRQAPGKERELVAAISSGDSTNYADSVKGRFTISRDNAKNTVYLQMNSLKPEDTAVYYCAADAPGAAAVQNDYWGQGTQVTVSS
polyreactivity (PSR sort gate): low polyreactivity

QVQLVESGGGLVQAGGSLRLSCAASGSTFRFNAMGWYRQAPGKERELVAAITGIGGITYYADSVKGRFTISRDNAKNTVYFQMNSLKPEDTAVYYCNAAGGYKPYLQDVDSRYDYWGQGTQVTVSS
polyreactivity (PSR sort gate): high polyreactivity

QVQLVESGGGLVQAGGSLRLSCAASGSTFRFYGMGWYRQAPGKERELVAAITYRSGITYADSGKGGFSISRDNANNTVYLLMNSLKPEETAVYYCAARARRYTDEYDYWGQGTQVTVSS
polyreactivity (PSR sort gate): low polyreactivity

QVQLVESGGGLVQAGGSLRLSCAASGSTFRFYTMGWYRQAPGKERELVATITSGGSTNYADSVKGRFTISRDNAKNTVYLQMNSLKPEDTAVYYCAASSVLTNHDYWGQGTQVTVSS
polyreactivity (PSR sort gate): low polyreactivity

QVQLVESGGGLVQAGGSLRLSCAASGSTFRGNAMGWYRPAPGKERELVASITGGGSTNYADSVKGRFTISRDNAKNTVYVPMNSLKPEDTAGYYCAADWGADFYWGQGTQVTVSS
polyreactivity (PSR sort gate): low polyreactivity

QVQLVESGGGLVQAGGSLRLSCAASGSTFRGNAMGWYRQAPGKERELVAAITGRGGRTYYADSVKGRFTISRDNAKNTVYLQMNSLKPEDTAVYYCAAYSRYKPYGITAYDYWGQGTQVNVSS
polyreactivity (PSR sort gate): high polyreactivity

QVQLVESGGGLVQAGGSLRLSCAASGSTFRGYAMGWYRQAPGKERELVAAISWSAGSTYYADSVKGRFTISRDNAKNTVYLQMNRLKPEDTAVYYCAKASVALRYYSYSLGRDYWGQGTQVTVSS
polyreactivity (PSR sort gate): low polyreactivity

QVQLVESGGGLVQAGGSLRLSCAASGSTFRHYAMGWYRQAPGKERELVAVISWGGTSTYYADSVKGRFTISRDNAKNTVYLQMNSLKPEDTAVYYCNKAYFPIFKGYEMYYWGQGTQVTVSS
polyreactivity (PSR sort gate): low polyreactivity
